Laboratory results taken from paper PMC9372576, “Interaction of the gas vesicle proteins GvpA, GvpC, GvpN, and GvpO of Halobacterium salinarum” (Frontiers in Microbiology, 2022).

T1: GvpA fused to NGFP or CGFP (Halobacterium salinarum, UniProt P08958 1-76)
T1 construct: the entire GvpA of the p-vac region of Halobacterium salinarum; gvpA reading frame; NGFP (mGFP2 up to aa 157) or CGFP (from aa 158) at the N- or C-terminus through a 14 aa (pJAS) or 16 aa (pWLfdx) linker; with GvpF and its variants CGFP stood at the C-terminus of GvpA (AC); also called NA; AN; source: Hfx. volcanii WR340 transformant, split-GFP fusion in living cells
T1 sequence (looked up): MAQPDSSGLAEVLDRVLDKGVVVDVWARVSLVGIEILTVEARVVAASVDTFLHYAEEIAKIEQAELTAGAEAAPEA

T2: GvpC C-terminal fragment Cterm (Halobacterium salinarum, UniProt P24574 329-382)
T2 construct: GvpC of Halobacterium salinarum, aa 329-382, the globular C-terminal domain with a zinc-finger motif; GFP fragment at the N- or C-terminus; source: Hfx. volcanii WR340 transformant, split-GFP fusion in living cells
T2 sequence (looked up): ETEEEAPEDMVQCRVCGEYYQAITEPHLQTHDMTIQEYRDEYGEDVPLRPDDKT

T3: GvpA fragment A1-34 (Halobacterium salinarum, UniProt P08958 1-34)
T3 construct: GvpA of Halobacterium salinarum, alpha1 plus beta-sheet 1; vector described in earlier work; source: Hfx. volcanii WR340 transformant, split-GFP fusion in living cells
T3 chain (looked up): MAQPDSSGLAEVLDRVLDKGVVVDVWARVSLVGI

T4: GvpA fragment A1-43 (Halobacterium salinarum, UniProt P08958 1-43)
T4 construct: GvpA of Halobacterium salinarum, alpha1-beta1-beta2; vector described in earlier work; source: Hfx. volcanii WR340 transformant, split-GFP fusion in living cells
T4 chain (looked up): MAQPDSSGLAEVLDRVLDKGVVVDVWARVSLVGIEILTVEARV

T5: GvpA fragment A20-47 (Halobacterium salinarum, UniProt P08958 20-47)
T5 construct: GvpA of Halobacterium salinarum, the two beta-sheets beta1-beta2; vector described in earlier work; source: Hfx. volcanii WR340 transformant, split-GFP fusion in living cells
T5 chain (looked up): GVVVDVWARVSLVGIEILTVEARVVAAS

T6: GvpA fragment A44-76 (Halobacterium salinarum, UniProt P08958 44-76)
T6 construct: GvpA of Halobacterium salinarum, mainly helix alpha3; vector described in earlier work; source: Hfx. volcanii WR340 transformant, split-GFP fusion in living cells
T6 chain (looked up): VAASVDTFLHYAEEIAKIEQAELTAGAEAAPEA

T7: GvpN fused to NGFP or CGFP (Halobacterium salinarum, UniProt Q9HI16 1-347)
T7 construct: GvpN of the p-vac region of Halobacterium salinarum; gvpN amplified from the p-vac region; GFP fragment at the N- or C-terminus, 14 or 16 aa linker; source: Hfx. volcanii WR340 transformant, split-GFP fusion in living cells
T7 sequence (looked up): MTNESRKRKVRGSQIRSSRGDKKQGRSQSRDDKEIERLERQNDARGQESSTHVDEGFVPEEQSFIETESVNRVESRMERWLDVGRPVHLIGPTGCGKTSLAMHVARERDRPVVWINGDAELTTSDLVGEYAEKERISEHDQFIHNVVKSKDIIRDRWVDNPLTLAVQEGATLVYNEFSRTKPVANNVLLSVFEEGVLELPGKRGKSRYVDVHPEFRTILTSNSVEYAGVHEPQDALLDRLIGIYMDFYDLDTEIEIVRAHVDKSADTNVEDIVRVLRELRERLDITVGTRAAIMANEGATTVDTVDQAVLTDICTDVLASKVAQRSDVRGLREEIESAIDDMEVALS

T8: GvpC fused to NGFP or CGFP (Halobacterium salinarum, UniProt P24574 1-382)
T8 construct: GvpC of the p-vac region of Halobacterium salinarum; gvpC amplified from the p-vac region; GFP fragment at the N- or C-terminus, 14 or 16 aa linker; source: Hfx. volcanii WR340 transformant, split-GFP fusion in living cells
T8 sequence (looked up): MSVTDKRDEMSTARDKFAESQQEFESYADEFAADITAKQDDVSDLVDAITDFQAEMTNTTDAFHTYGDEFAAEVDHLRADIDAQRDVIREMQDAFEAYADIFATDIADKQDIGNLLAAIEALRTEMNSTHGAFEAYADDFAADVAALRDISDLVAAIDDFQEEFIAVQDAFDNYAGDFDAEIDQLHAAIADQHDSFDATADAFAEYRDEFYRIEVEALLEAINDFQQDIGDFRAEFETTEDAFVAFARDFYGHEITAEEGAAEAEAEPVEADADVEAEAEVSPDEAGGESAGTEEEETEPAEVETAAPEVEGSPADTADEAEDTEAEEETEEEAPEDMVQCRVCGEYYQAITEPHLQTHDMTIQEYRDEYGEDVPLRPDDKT

B1: GvpA fragment A1-22 (domain or fragment, Halobacterium salinarum, UniProt P08958 1-22, looked up)
chain: MAQPDSSGLAEVLDRVLDKGVV
notes: GvpA of Halobacterium salinarum, the first 22 aa including alpha-helix 1; vector described in Winter et al., 2018 and Voelkner et al., 2020; source: Hfx. volcanii WR340 transformant, split-GFP fusion in living cells

Experiments:
Experiment in all cases: split reporter (BiFC, NanoBiT); split-GFP (NGFP and CGFP of salt-stable mGFP2) in Hfx. volcanii transformants, 24 h 37 °C then 24 h 30 °C; relative fluorescence (rf) against the wild type; the highest of eight tag combinations is given
GvpA fragment A1-22 = biological target: B1; details: partners not purified
[1] = biological target: T1, GvpA fused to NGFP or CGFP; details: partners not purified
[2] = biological target: T2, GvpC C-terminal fragment Cterm; details: partners not purified
GvpA fragment A1-34 = biological target: T3, GvpA fragment A1-34; details: partners not purified
GvpA fragment A1-43 = biological target: T4, GvpA fragment A1-43; details: partners not purified
GvpA fragment A20-47 = biological target: T5, GvpA fragment A20-47; details: partners not purified
GvpA fragment A44-76 = biological target: T6, GvpA fragment A44-76; details: partners not purified
[3] = biological target: the molecule itself
[4] = biological target: T7, GvpN fused to NGFP or CGFP; details: partners not purified
[5] = biological target: T8, GvpC fused to NGFP or CGFP; details: partners not purified

Row | relative fluorescence (rf) (GvpA fragment A1-22) [LAU/mm^2] | relative fluorescence (rf) [1] [LAU/mm^2] | relative fluorescence (rf) [2] [LAU/mm^2] | relative fluorescence (rf) (GvpA fragment A1-34) [LAU/mm^2] | relative fluorescence (rf) (GvpA fragment A1-43) [LAU/mm^2] | relative fluorescence (rf) (GvpA fragment A20-47) [LAU/mm^2] | relative fluorescence (rf) (GvpA fragment A44-76) [LAU/mm^2] | relative fluorescence (rf) [4] [LAU/mm^2] | relative fluorescence (rf) [5] [LAU/mm^2] | Binder | relative fluorescence (rf) [3] [LAU/mm^2]
1 | 3.57 | < 2.5 | 10.1 | – | – | – | – | – | – | GvpC N-terminal fragment Nterm (domain or fragment, Halobacterium salinarum, UniProt P24574 10-130, looked up, GvpC of Halobacterium salinarum, amino acids 10-130, the first three alpha-helical repeats; GFP fragment at the N- or C-terminus; source: Hfx. volcanii WR340 transformant, split-GFP fusion in living cells) MSTARDKFAESQQEFESYADEFAADITAKQDDVSDLVDAITDFQAEMTNTTDAFHTYGDEFAAEVDHLRADIDAQRDVIREMQDAFEAYADIFATDIADKQDIGNLLAAIEALRTEMNSTH | –
2 | – | – | – | ≤ 0.48 | ≤ 0.48 | ≤ 0.48 | ≤ 0.48 | – | – | B1 | –
3 | 3 | – | – | – | – | – | – | 12.5 | < 5 | GvpO fused to NGFP or CGFP (natural protein, Halobacterium salinarum, UniProt O51968 1-119, looked up, GvpO of the p-vac region of Halobacterium salinarum; gvpO amplified from the p-vac region; GFP fragment at the N- or C-terminus, 14 or 16 aa linker; source: Hfx. volcanii WR340 transformant, split-GFP fusion in living cells) MADPANDRSEREEGGEDDETPPASDGNPSPSANSFTLSNAQTRAREAAQDLLEHQFEGMIKAESNDEGWRTVVEVVERNAVPDTQDIIGRYEITLDGTGDVTGYELLERYRRGDMKEEL | > 10
